Measured values taken from the Human Domainome abundance scans (Beltran et al. 2025).
± gives the uncertainty stated by the source.

Assay: abundance fitness (aPCA) (normalised: wild type 0, dead -1); higher = more abundant; growth selection in yeast, the domain comes from the species named
Conditions: Homo sapiens

**Q.** With “E3 ubiquitin-protein ligase NEDD4-like H222Y, Q96PU5” as the substance, how does the abundance fitness read?
**A.** Its abundance fitness is -0.171 ± 0.11.

**Q.** Which abundance fitness does the source give for “E3 ubiquitin-protein ligase NEDD4-like K202A, Q96PU5” here?
**A.** Its abundance fitness is -0.185 ± 0.06.

**Q.** For “E3 ubiquitin-protein ligase NEDD4-like K202C, Q96PU5”, which abundance fitness is on record?
**A.** The abundance fitness was -0.253 ± 0.097.

**Q.** Which abundance fitness does the source give for “E3 ubiquitin-protein ligase NEDD4-like K202D, Q96PU5” here?
**A.** The abundance fitness was -0.491 ± 0.064.

**Q.** With “E3 ubiquitin-protein ligase NEDD4-like K202E, Q96PU5” as the substance, how does the abundance fitness read?
**A.** The abundance fitness was -0.295 ± 0.095.

**Q.** Which abundance fitness does the source give for “E3 ubiquitin-protein ligase NEDD4-like K202F, Q96PU5” here?
**A.** The abundance fitness was -0.49 ± 0.11.

**Q.** For “E3 ubiquitin-protein ligase NEDD4-like K202G, Q96PU5”, which abundance fitness is on record?
**A.** The abundance fitness was -0.482 ± 0.06.

**Q.** Which abundance fitness does the source give for “E3 ubiquitin-protein ligase NEDD4-like K202H, Q96PU5” here?
**A.** Its abundance fitness is -0.173 ± 0.078.

**Q.** For “E3 ubiquitin-protein ligase NEDD4-like K202I, Q96PU5”, which abundance fitness is on record?
**A.** The abundance fitness was -0.193 ± 0.13.

**Q.** Which abundance fitness does the source give for “E3 ubiquitin-protein ligase NEDD4-like K202L, Q96PU5” here?
**A.** The abundance fitness was -0.205 ± 0.074.

**Q.** With “E3 ubiquitin-protein ligase NEDD4-like K202M, Q96PU5” as the substance, how does the abundance fitness read?
**A.** Its abundance fitness is -0.496 ± 0.1.

**Q.** With “E3 ubiquitin-protein ligase NEDD4-like K202N, Q96PU5” as the substance, how does the abundance fitness read?
**A.** Its abundance fitness is -0.01 ± 0.11.

**Q.** For “E3 ubiquitin-protein ligase NEDD4-like K202P, Q96PU5”, which abundance fitness is on record?
**A.** Its abundance fitness is -0.814 ± 0.12.

**Q.** Which abundance fitness does the source give for “E3 ubiquitin-protein ligase NEDD4-like K202Q, Q96PU5” here?
**A.** Its abundance fitness is -0.252 ± 0.096.

**Q.** For “E3 ubiquitin-protein ligase NEDD4-like K202R, Q96PU5”, which abundance fitness is on record?
**A.** The abundance fitness was -0.216 ± 0.062.

**Q.** For “E3 ubiquitin-protein ligase NEDD4-like K202T, Q96PU5”, which abundance fitness is on record?
**A.** Its abundance fitness is -0.308 ± 0.083.

**Q.** Which abundance fitness does the source give for “E3 ubiquitin-protein ligase NEDD4-like K202V, Q96PU5” here?
**A.** The abundance fitness was -0.408 ± 0.059.

**Q.** Which abundance fitness does the source give for “E3 ubiquitin-protein ligase NEDD4-like K202W, Q96PU5” here?
**A.** The abundance fitness was -0.838 ± 0.089.

**Q.** With “E3 ubiquitin-protein ligase NEDD4-like K202Y, Q96PU5” as the substance, how does the abundance fitness read?
**A.** The abundance fitness was -0.289 ± 0.11.

**Q.** For “E3 ubiquitin-protein ligase NEDD4-like L190A, Q96PU5”, which abundance fitness is on record?
**A.** Its abundance fitness is -0.186 ± 0.075.

**Q.** For “E3 ubiquitin-protein ligase NEDD4-like L190C, Q96PU5”, which abundance fitness is on record?
**A.** The abundance fitness was 0.09 ± 0.076.

**Q.** Which abundance fitness does the source give for “E3 ubiquitin-protein ligase NEDD4-like L190D, Q96PU5” here?
**A.** The abundance fitness was 0.066 ± 0.1.

**Q.** For “E3 ubiquitin-protein ligase NEDD4-like L190F, Q96PU5”, which abundance fitness is on record?
**A.** Its abundance fitness is 0.051 ± 0.095.

**Q.** With “E3 ubiquitin-protein ligase NEDD4-like L190G, Q96PU5” as the substance, how does the abundance fitness read?
**A.** The abundance fitness was -0.178 ± 0.059.

**Q.** With “E3 ubiquitin-protein ligase NEDD4-like L190H, Q96PU5” as the substance, how does the abundance fitness read?
**A.** Its abundance fitness is -0.141 ± 0.11.

**Q.** With “E3 ubiquitin-protein ligase NEDD4-like L190I, Q96PU5” as the substance, how does the abundance fitness read?
**A.** Its abundance fitness is 0.125 ± 0.1.

**Q.** Which abundance fitness does the source give for “E3 ubiquitin-protein ligase NEDD4-like L190K, Q96PU5” here?
**A.** The abundance fitness was 0.08 ± 0.076.

**Q.** For “E3 ubiquitin-protein ligase NEDD4-like L190M, Q96PU5”, which abundance fitness is on record?
**A.** Its abundance fitness is -0.407 ± 0.097.

**Q.** With “E3 ubiquitin-protein ligase NEDD4-like L190N, Q96PU5” as the substance, how does the abundance fitness read?
**A.** Its abundance fitness is -0.031 ± 0.087.

**Q.** With “E3 ubiquitin-protein ligase NEDD4-like L190P, Q96PU5” as the substance, how does the abundance fitness read?
**A.** Its abundance fitness is -0.479 ± 0.067.

**Q.** For “E3 ubiquitin-protein ligase NEDD4-like L190Q, Q96PU5”, which abundance fitness is on record?
**A.** The abundance fitness was -0.556 ± 0.13.

**Q.** Which abundance fitness does the source give for “E3 ubiquitin-protein ligase NEDD4-like L190R, Q96PU5” here?
**A.** Its abundance fitness is -0.024 ± 0.057.

**Q.** Which abundance fitness does the source give for “E3 ubiquitin-protein ligase NEDD4-like L190S, Q96PU5” here?
**A.** The abundance fitness was -0.02 ± 0.056.

**Q.** With “E3 ubiquitin-protein ligase NEDD4-like L190T, Q96PU5” as the substance, how does the abundance fitness read?
**A.** Its abundance fitness is -0.182 ± 0.074.

**Q.** Which abundance fitness does the source give for “E3 ubiquitin-protein ligase NEDD4-like L190V, Q96PU5” here?
**A.** The abundance fitness was -0.053 ± 0.053.

**Q.** With “E3 ubiquitin-protein ligase NEDD4-like L190W, Q96PU5” as the substance, how does the abundance fitness read?
**A.** The abundance fitness was -0.503 ± 0.068.

**Q.** Which abundance fitness does the source give for “E3 ubiquitin-protein ligase NEDD4-like L190Y, Q96PU5” here?
**A.** The abundance fitness was -0.094 ± 0.088.

**Q.** Which abundance fitness does the source give for “E3 ubiquitin-protein ligase NEDD4-like L195A, Q96PU5” here?
**A.** The abundance fitness was -0.072 ± 0.22.

**Q.** Which abundance fitness does the source give for “E3 ubiquitin-protein ligase NEDD4-like L195F, Q96PU5” here?
**A.** Its abundance fitness is -0.902 ± 0.38.

**Q.** For “E3 ubiquitin-protein ligase NEDD4-like L195G, Q96PU5”, which abundance fitness is on record?
**A.** Its abundance fitness is -0.581 ± 0.28.

**Q.** Which abundance fitness does the source give for “E3 ubiquitin-protein ligase NEDD4-like L195S, Q96PU5” here?
**A.** The abundance fitness was -0.182 ± 0.33.

**Q.** For “E3 ubiquitin-protein ligase NEDD4-like L195V, Q96PU5”, which abundance fitness is on record?
**A.** Its abundance fitness is 0.143 ± 0.17.

**Q.** Which abundance fitness does the source give for “E3 ubiquitin-protein ligase NEDD4-like L206A, Q96PU5” here?
**A.** The abundance fitness was 0.124 ± 0.059.

**Q.** For “E3 ubiquitin-protein ligase NEDD4-like L206C, Q96PU5”, which abundance fitness is on record?
**A.** The abundance fitness was 0.003 ± 0.09.

**Q.** With “E3 ubiquitin-protein ligase NEDD4-like L206D, Q96PU5” as the substance, how does the abundance fitness read?
**A.** Its abundance fitness is 0.015 ± 0.095.

**Q.** For “E3 ubiquitin-protein ligase NEDD4-like L206E, Q96PU5”, which abundance fitness is on record?
**A.** The abundance fitness was 0.044 ± 0.084.

**Q.** Which abundance fitness does the source give for “E3 ubiquitin-protein ligase NEDD4-like L206G, Q96PU5” here?
**A.** The abundance fitness was 0.059 ± 0.059.

**Q.** Which abundance fitness does the source give for “E3 ubiquitin-protein ligase NEDD4-like L206I, Q96PU5” here?
**A.** The abundance fitness was -0.159 ± 0.13.

**Q.** With “E3 ubiquitin-protein ligase NEDD4-like L206K, Q96PU5” as the substance, how does the abundance fitness read?
**A.** The abundance fitness was 0.126 ± 0.11.

**Q.** With “E3 ubiquitin-protein ligase NEDD4-like L206M, Q96PU5” as the substance, how does the abundance fitness read?
**A.** Its abundance fitness is -0.083 ± 0.096.

**Q.** Which abundance fitness does the source give for “E3 ubiquitin-protein ligase NEDD4-like L206N, Q96PU5” here?
**A.** Its abundance fitness is -0.016 ± 0.11.

**Q.** With “E3 ubiquitin-protein ligase NEDD4-like L206P, Q96PU5” as the substance, how does the abundance fitness read?
**A.** Its abundance fitness is -0.707 ± 0.11.

**Q.** Which abundance fitness does the source give for “E3 ubiquitin-protein ligase NEDD4-like L206Q, Q96PU5” here?
**A.** Its abundance fitness is 0.021 ± 0.091.

**Q.** With “E3 ubiquitin-protein ligase NEDD4-like L206R, Q96PU5” as the substance, how does the abundance fitness read?
**A.** The abundance fitness was 0.04 ± 0.056.

**Q.** With “E3 ubiquitin-protein ligase NEDD4-like L206S, Q96PU5” as the substance, how does the abundance fitness read?
**A.** Its abundance fitness is 0.065 ± 0.054.

**Q.** For “E3 ubiquitin-protein ligase NEDD4-like L206T, Q96PU5”, which abundance fitness is on record?
**A.** The abundance fitness was 0.011 ± 0.08.

**Q.** With “E3 ubiquitin-protein ligase NEDD4-like L206V, Q96PU5” as the substance, how does the abundance fitness read?
**A.** The abundance fitness was -0.056 ± 0.062.

**Q.** With “E3 ubiquitin-protein ligase NEDD4-like L206W, Q96PU5” as the substance, how does the abundance fitness read?
**A.** The abundance fitness was -0.034 ± 0.077.

**Q.** For “E3 ubiquitin-protein ligase NEDD4-like L226A, Q96PU5”, which abundance fitness is on record?
**A.** The abundance fitness was 0.021 ± 0.072.

**Q.** For “E3 ubiquitin-protein ligase NEDD4-like L226C, Q96PU5”, which abundance fitness is on record?
**A.** Its abundance fitness is 0.063 ± 0.071.

**Q.** With “E3 ubiquitin-protein ligase NEDD4-like L226D, Q96PU5” as the substance, how does the abundance fitness read?
**A.** The abundance fitness was -0.023 ± 0.088.

**Q.** For “E3 ubiquitin-protein ligase NEDD4-like L226E, Q96PU5”, which abundance fitness is on record?
**A.** Its abundance fitness is -0.203 ± 0.092.

**Q.** Which abundance fitness does the source give for “E3 ubiquitin-protein ligase NEDD4-like L226F, Q96PU5” here?
**A.** The abundance fitness was -0.079 ± 0.1.

**Q.** For “E3 ubiquitin-protein ligase NEDD4-like L226G, Q96PU5”, which abundance fitness is on record?
**A.** Its abundance fitness is -0.117 ± 0.057.

**Q.** For “E3 ubiquitin-protein ligase NEDD4-like L226H, Q96PU5”, which abundance fitness is on record?
**A.** The abundance fitness was -0.065 ± 0.065.

**Q.** Which abundance fitness does the source give for “E3 ubiquitin-protein ligase NEDD4-like L226I, Q96PU5” here?
**A.** The abundance fitness was -0.186 ± 0.12.

**Q.** Which abundance fitness does the source give for “E3 ubiquitin-protein ligase NEDD4-like L226M, Q96PU5” here?
**A.** Its abundance fitness is 0.011 ± 0.093.

**Q.** For “E3 ubiquitin-protein ligase NEDD4-like L226N, Q96PU5”, which abundance fitness is on record?
**A.** The abundance fitness was 0.01 ± 0.09.
